Measured values reported in patent US20140141456.

Tests used:
[1] = molecular target: C-terminally c-myc tagged rIGFBP-5 (human IGFBP-5 with myc epitope and His6, expressed in mammalian cells), P24593
[2] = molecular target: rIGFBP-3 (gift of D. Powell), P17936
[3] = molecular target: rIGFBP-5 (gift of D. Andress), P24593
rIGFBP-5 (gift of D. Andress), P24593, sequence (P24593 21-272): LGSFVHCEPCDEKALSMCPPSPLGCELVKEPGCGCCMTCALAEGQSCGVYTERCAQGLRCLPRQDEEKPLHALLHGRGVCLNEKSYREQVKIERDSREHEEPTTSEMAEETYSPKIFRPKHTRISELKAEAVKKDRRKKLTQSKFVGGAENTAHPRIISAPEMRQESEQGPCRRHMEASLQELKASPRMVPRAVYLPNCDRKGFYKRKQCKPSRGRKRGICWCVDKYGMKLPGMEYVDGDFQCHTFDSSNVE

C-terminally c-myc tagged rIGFBP-5 (human IGFBP-5 with myc epitope and His6, expressed in mammalian cells), P24593, sequence (P24593 other isoform, or with tags, fused parts or gaps): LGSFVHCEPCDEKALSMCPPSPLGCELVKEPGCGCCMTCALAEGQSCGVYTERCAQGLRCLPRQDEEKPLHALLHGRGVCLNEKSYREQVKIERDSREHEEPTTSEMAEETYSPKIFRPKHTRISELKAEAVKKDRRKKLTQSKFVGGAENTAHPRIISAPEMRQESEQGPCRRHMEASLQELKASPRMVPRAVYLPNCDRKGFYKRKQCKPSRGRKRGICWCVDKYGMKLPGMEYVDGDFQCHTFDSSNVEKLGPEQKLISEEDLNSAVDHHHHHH
rIGFBP-3 (gift of D. Powell), P17936, sequence (P17936 28-291): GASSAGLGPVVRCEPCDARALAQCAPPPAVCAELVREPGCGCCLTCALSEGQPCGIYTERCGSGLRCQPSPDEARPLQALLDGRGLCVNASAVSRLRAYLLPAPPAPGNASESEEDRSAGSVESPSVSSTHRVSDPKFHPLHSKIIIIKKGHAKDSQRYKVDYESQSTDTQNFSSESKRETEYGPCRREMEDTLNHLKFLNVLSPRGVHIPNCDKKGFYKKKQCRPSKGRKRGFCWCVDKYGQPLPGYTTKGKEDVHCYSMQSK

B1: PAPP-A2 (recombinant, in medium from 293T cells transfected with cDNA encoding PAPP-A2, pPA2; also purified PAPP-A2) (protein)
chain: SPPEESNQNGGEGSYREAETFNSQVGLPILYFSGRRERLLLRPEVLAEIPREAFTVEAWVKPEGGQNNPAIIAGVFDNCSHTVSDKGWALGIRSGKDKGKRDARFFFSLCTDRVKKATILISHSRYQPGTWTHVAATYDGRHMALYVDGTQVASSLDQSGPLNSPFMASCRSLLLGGDSSEDGHYFRGHLGTLVFWSTALPQSHFQHSSQHSSGEEEATDLVLTASFEPVNTEWVPFRDEKYPRLEVLQGFEPEPEILSPLQPPLCGQTVCDNVELISQYNGYWPLRGEKVIRYQVVNICDDEGLNPIVSEEQIRLQHEALNEAFSRYNISWQLSVHQVHNSTLRHRVVLVNCEPSKIGNDHCDPECEHPLTGYDGGDCRLQGRCYSWNRRDGLCHVECNNMLNDFDDGDCCDPQVADVRKTCFDPDSPKRAYMSVKELKEALQLNSTHFLNIYFASSVREDLAGAATWPWDKDAVTHLGGIVLSPAYYGMPGHTDTMIHEVGHVLGLYHVFKGVSERESCNDPCKETVPSMETGDLCADTAPTPKSELCREPEPTSDTCGFTRFPGAPFTNYMSYTDDNCTDNFTPNQVARMHCYLDLVYQQWTESRKPTPIPIPPMVIGQTNKSLTIHWLPPISGVVYDRASGSLCGACTEDGTFRQYVHTASSRRVCDSSGYWTPEEAVGPPDVDQPCEPSLQAWSPEVHLYHMNMTVPCPTEGCSLELLFQHPVQADTLTLWVTSFFMESSQVLFDTEILLENKESVHLGPLDTFCDIPLTIKLHVDGKVSGVKVYTFDERIEIDAALLTSQPHSPLCSGCRPVRYQVLRDPPFASGLPVVVTHSHRKFTDVEVTPGQMYQYQVLAEAGGELGEASPPLNHIHGAPYCGDGKVSERLGEECDDGDLVSGDGCSKVCELEEGFNCVGEPSLCYMYEGDGICEPFERKTSIVDCGIYTPKGYLDQWATRAYSSHEDKKKCPVSLVTGEPHSLICTSYHPDLPNHRPLTGWFPCVASENETQDDRSEQPEGSLKKEDEVWLKVCFNRPGEARAIFIFLTTDGLVPGEHQQPTVTLYLTDVRGSNHSLGTYGLSCQHNPLIINVTHHQNVLFHHTTSVLLNFSSPRVGISAVALRTSSRIGLSAPSNCISEDEGQNHQGQSCIHRPCGKQDSCPSLLLDHADVVNCTSIGPGLMKCAITCQRGFALQASSGQYIRPMQKEILLTCSSGHWDQNVSCLPVDCGVPDPSLVNYANFSCSEGTKFLKRCSISCVPPAKLQGLSPWLTCLEDGLWSLPEVYCKLECDAPPIILNANLLLPHCLQDNHDVGTICKYECKPGYYVAESAEGKVRNKLLKIQCLEGGIWEQGSCIPVVCEPPPPVFEGMYECTNGFSLDSQCVLNCNQEREKLPILCTKEGLWTQEFKLCENLQGECPPPPSELNSVEYKCEQGYGIGAVCSPLCVIPPSDPVMLPENITADTLEHWMEPVKVQSIVCTGRRQWHPDPVLVHCIQSCEPFQADGWCDTINNRAYCHYDGGDCCSSTLSSKKVIPFAADCDLDECTCRDPKAEENQ
Proteolytic activity was assessed by Western blotting using anti-c-myc [1]: In the absence of inhibitors, wild-type PAPP-A2 degraded all rIGFBP-5 (lane 3)
activity assessed by ligand blotting using radiolabeled IGF-II [2]: IGFBP-3 was partially degraded
activity assessed by ligand blotting using radiolabeled IGF-II [3]: IGFBP-5 showed complete cleavage
